Molecular target: the molecule itself
Experiment: cryo-EM structure

B1: RsmA (natural protein)
chain: not shown
B1: binds.

Reference: doi:10.1101/2022.11.16.516715 (bioRxiv, 2022)
